Series [1] deals with Orai1 peptide (first extracellular domain) (UniProt Q96D31). The series is described as follows: ELONA. As to conditions: 0.1 ug/well aptamer; lowest of six; value from stated range; SHCMK: 20 mM Hepes pH 7.35, 120 mM KCl, 1 mM CaCl2, 1 mM MgCl2; 37 C, 3 h (2 h for Kd); peptide-coated plates, wash with 0.05% Tween ….
In series [2] the target is T1, Orai1 peptide (first extracellular domain) (UniProt Q96D31).
T1 chain: DADHDYPPGLL
Briefly: ELONA; SHCMK: 20 mM Hepes pH 7.35, 120 mM KCl, 1 mM CaCl2, 1 mM MgCl2; 37 C, 3 h (2 h for Kd); peptide-coated plates, wash with 0.05% Tween 20. As to conditions: tags: none stated; coated on polystyrene plate; label: biotin.

“TGCGAGCATCTCGCTATCAGAGTGAGGTGATTTGTGCATA [Aptamer Y8]” registered a binding signal in series [1] of 1.18 OD450.

B1: ONT1 (ssDNA)
DNA: TCAAGCTTATGACCGAGCGCCGCGTGCC
Regarding B1, in series [2], the binding result was “no binding”.

B2: ONT2 (ssDNA)
DNA: TAGGATCCCCAGACCTGCCCGCCATGT
For B2, in series [2], the binding result was “no binding”.

B3: ONT3 (ssDNA)
DNA: GGTACCGCAGAATTGGGAAGAGATAGA
For the molecule B3, the binding result in series [2] was “no binding”.
